Target: T1, recombinant ALKBH2 with a streptavidin binding peptide tag (human, UniProt Q6NS38 1-261)
T1 sequence (looked up): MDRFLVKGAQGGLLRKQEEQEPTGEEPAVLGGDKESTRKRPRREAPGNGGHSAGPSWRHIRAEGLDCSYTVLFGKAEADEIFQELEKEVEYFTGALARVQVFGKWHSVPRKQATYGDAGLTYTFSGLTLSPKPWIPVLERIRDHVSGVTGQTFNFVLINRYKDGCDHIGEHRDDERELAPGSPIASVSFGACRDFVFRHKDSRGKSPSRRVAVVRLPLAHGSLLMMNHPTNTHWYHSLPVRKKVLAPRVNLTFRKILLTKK
Assay: pull-down

B1: recombinant PCNA mutant VDK188 (natural protein, UniProt P12004 1-261, looked up)
chain: MFEARLVQGSILKKVLEALKDLINEACWDISSSGVNLQSMDSSHVSLVQLTLRSEGFDTYRCDRNLAMGVNLTSMSKILKCAGNEDIITLRAEDNADTLALVFEAPNQEKVSDYEMKLMDLDVEQLGIPEQEYSCVVKMPSGEFARICRDLSHIGDAVVISCAKDGVKFSASGELGNGNIKLSQTSNAAAEEEAVTIEMNEPVQLTFALRYLNFFTKATPLSSTVTLSMSADVPLVVEYKIADMGHLKYYLAPKIEDEEGS
B1: binds.

— paper PMC5206904 (DNA repair, 2015)
